# From article PMC1762320, “Separation of Anti-Proliferation and Anti-Apoptotic Functions of Retinoblastoma Protein through Targeted Mutations of Its A/B Domain” (PLoS ONE, 2006)
# B1: retinoblastoma protein RB (wild type, expressed in cells) (natural protein, human, UniProt P06400 1-928, looked up)
# chain: MPPKTPRKTAATAAAAAAEPPAPPPPPPPEEDPEQDSGPEDLPLVRLEFEETEEPDFTALCQKLKIPDHVRERAWLTWEKVSSVDGVLGGYIQKKKELWGICIFIAAVDLDEMSFTFTELQKNIEISVHKFFNLLKEIDTSTKVDNAMSRLLKKYDVLFALFSKLERTCELIYLTQPSSSISTEINSALVLKVSWITFLLAKGEVLQMEDDLVISFQLMLCVLDYFIKLSPPMLLKEPYKTAVIPINGSPRTPRRGQNRSARIAKQLENDTRIIEVLCKEHECNIDEVKNVYFKNFIPFMNSLGLVTSNGLPEVENLSKRYEEIYLKNKDLDARLFLDHDKTLQTDSIDSFETQRTPRKSNLDEEVNVIPPHTPVRTVMNTIQQLMMILNSASDQPSENLISYFNNCTVNPKESILKRVKDIGYIFKEKFAKAVGQGCVEIGSQRYKLGVRLYYRVMESMLKSEEERLSIQNFSKLLNDNIFHMSLLACALEVVMATYSRSTSQNLDSGTDLSFPWILNVLNLKAFDFYKVIESFIKAEGNLTREMIKHLERCEHRIMESLAWLSDSPLFDLIKQSKDREGPTDHLESACPLNLPLQNNHTAADMYLSPVRSPKKKGSTTRVNSTANAETQATSAFQTQKPLKSTSLSLFYKKVYRLAYLRLNTLCERLLSEHPELEHIIWTLFQHTLQNEYELMRDRHLDQIMMCSMYGICKVKNIDLKFKIIVTAYKDLPHAVQETFKRVLIKEEEYDSIIVFYNSVFMQRLKTNILQYASTRPPTLSPIPHIPRSPYKFPSSPLRIPGGNIYISPLKSPYKISEGLPTPTKMTPRSRILVSIGESFGTSEKFQKINQMVCNSDRVLKRSAEGSNPPKPLKKLRFDIEGSDEADGSKHLPGESKFQQKLAEMTSTRTRMQKQKMNDSMDTSNKEEK
# Target: E2F1 induced in SAOS-2-tet-E2F1 cells (human, UniProt Q01094 1-437)
# Test: cell-based or functional assay
# Chain of E2F1 induced in SAOS-2-tet-E2F1 cells (Q01094 whole entry): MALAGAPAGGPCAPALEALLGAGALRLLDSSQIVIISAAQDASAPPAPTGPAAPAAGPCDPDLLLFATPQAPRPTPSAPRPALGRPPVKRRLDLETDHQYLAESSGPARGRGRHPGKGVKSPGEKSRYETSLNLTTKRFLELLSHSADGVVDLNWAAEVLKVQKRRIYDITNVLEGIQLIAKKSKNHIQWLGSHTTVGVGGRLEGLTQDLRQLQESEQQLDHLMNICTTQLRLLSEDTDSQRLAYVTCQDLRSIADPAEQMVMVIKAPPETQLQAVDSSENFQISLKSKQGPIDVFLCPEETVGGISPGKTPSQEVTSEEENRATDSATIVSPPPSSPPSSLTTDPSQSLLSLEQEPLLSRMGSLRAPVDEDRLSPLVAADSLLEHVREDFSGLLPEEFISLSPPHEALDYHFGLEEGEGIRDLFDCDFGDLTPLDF
binder,measurement,value
B1,Gal4-Luc luciferase reporter in SAOS-2 cells co-transfected with Gal4-E2F1 (Gal4 DNA-binding domain and transactivation domain of E2F1) and RB: reduction of Gal4-E2F1 activity,3 fold
